# According to PMC11978871, “PACT prevents aberrant activation of PKR by endogenous dsRNA without sequestration” (Nature Communications, 2024):
# B1: 42 bp dsRNA (dsRNA)
# RNA 1: GGGAGAAUGUCGAAUGGGUAUUCCACAGACGAGAAUUCUCCC
# RNA 2: GGGAGAAUUCUCGUCUGUGGAAUACCCAUUCGACAUUCUCCC
# B2: PACT DRBD3 (residues 235-313) (domain or fragment, UniProt O75569 235-313, looked up)
# chain: SIPNTDYIQLLSEIAKEQGFNITYLDIDELSANGQYQCLAELSTSPITVCHGSGISCGNAQSDAAHNALQYLKIIAERK
# modifications: isotope-labelled (15N, 13C, ~85% 2H; for the mixed sample 15N,2H-labelled and 13C-labelled protomers)
# notes: PACT DRBD3, residues 235-313, in pET47b between BamHI and SalI; Homodimer in the NMR structure; also called PACT D3; source: E. coli BL21(DE3) in M9 minimal media, purified (Ni-NTA, SEC)
# B3: 62 bp dsRNA (dsRNA)
# RNA 1: GGGAGAAUGUCGAAUGGGUAUUCCACAGACGAGAAUUUCCGCUAUCUCAUCUCGUGUCUCCC
# RNA 2: GGGAGACACGAGAUGAGAUAGCGGAAAUUCUCGUCUGUGGAAUACCCAUUCGACAUUCUCCC
# What was measured:
# [1] = biological target: T1, PKR K296R (UniProt P19525 1-551, K296R); test: SEC-MALS; 3 PKR per dsRNA; EMSA: 20 mM HEPES pH 7.5, 150 mM NaCl, 2 mM DTT, RT 15 min, 0.2 ng/ul 32P-112 bp dsRNA, 0-4000 nM protein, Bis-Tris native PAGE; smFRET buffer not in material; details: protein: recombinant; tags: pET29b; Cy5-labeled in smFRET; blunt
# T1 sequence (P19525 whole entry K296R): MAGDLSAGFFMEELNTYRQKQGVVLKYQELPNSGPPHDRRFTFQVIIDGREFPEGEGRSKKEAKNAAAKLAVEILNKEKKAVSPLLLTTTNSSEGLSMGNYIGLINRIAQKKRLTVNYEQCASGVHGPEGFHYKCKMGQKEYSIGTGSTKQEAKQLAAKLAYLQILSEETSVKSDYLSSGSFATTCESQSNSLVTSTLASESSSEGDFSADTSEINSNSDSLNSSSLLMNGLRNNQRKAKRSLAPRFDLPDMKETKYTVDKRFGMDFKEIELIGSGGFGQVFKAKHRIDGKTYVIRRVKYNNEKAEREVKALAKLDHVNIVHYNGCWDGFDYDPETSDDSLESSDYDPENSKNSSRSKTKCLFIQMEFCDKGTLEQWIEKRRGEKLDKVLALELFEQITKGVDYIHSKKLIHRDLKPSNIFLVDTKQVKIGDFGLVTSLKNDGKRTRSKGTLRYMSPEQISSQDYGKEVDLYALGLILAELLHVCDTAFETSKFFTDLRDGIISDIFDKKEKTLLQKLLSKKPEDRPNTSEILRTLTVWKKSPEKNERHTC
# [2] = biological target: the molecule itself; test: NMR structure; PACT D3 in 20 mM HEPES pH 7.5, 50 mM KCl, 2 mM DTT, 30 °C; inter-chain NOEs from a mixed-isotope sample (0.4 mM each protomer)
# [3] = biological target: T1, PKR K296R; test: SEC-MALS; 4 PKR per dsRNA; EMSA: 20 mM HEPES pH 7.5, 150 mM NaCl, 2 mM DTT, RT 15 min, 0.2 ng/ul 32P-112 bp dsRNA, 0-4000 nM protein, Bis-Tris native PAGE; smFRET buffer not in material; details: protein: recombinant; tags: pET29b; Cy5-labeled in smFRET; blunt
binder,measurement,setting,value
B1,binding result,[1],binds
B2,stoichiometry N,[2],2
B3,binding result,[3],binds
